Reference: publication PMC3513567 (Molecular cell, 2012)
Substitutions are numbered along the chain they refer to.

B1: recombinant murine leptin (ligand, UniProt P41160 22-167, looked up)
chain: VPIQKVQDDTKTLIKTIVTRINDISHTQSVSAKQRVTGLDFIPGLHPILSLSKMDQTLAVYQQVLTSLPSQNVLQIANDLENLRDLLHLLAFSKSCSLPQTSGLQKPESLDGVLEASLYSTEVVALSRLQGSLQDILQQLDVSPEC

Assays:
[1] = biological target: truncated murine LEP-R construct (D1-D5) lacking the two membrane-proximal FnIII domains (murine); assay: ITC
[2] = biological target: T1, extracellular region (domains D1-D7) of murine LEP-R (murine, UniProt P48356 22-839); assay: ITC
T1 sequence (looked up): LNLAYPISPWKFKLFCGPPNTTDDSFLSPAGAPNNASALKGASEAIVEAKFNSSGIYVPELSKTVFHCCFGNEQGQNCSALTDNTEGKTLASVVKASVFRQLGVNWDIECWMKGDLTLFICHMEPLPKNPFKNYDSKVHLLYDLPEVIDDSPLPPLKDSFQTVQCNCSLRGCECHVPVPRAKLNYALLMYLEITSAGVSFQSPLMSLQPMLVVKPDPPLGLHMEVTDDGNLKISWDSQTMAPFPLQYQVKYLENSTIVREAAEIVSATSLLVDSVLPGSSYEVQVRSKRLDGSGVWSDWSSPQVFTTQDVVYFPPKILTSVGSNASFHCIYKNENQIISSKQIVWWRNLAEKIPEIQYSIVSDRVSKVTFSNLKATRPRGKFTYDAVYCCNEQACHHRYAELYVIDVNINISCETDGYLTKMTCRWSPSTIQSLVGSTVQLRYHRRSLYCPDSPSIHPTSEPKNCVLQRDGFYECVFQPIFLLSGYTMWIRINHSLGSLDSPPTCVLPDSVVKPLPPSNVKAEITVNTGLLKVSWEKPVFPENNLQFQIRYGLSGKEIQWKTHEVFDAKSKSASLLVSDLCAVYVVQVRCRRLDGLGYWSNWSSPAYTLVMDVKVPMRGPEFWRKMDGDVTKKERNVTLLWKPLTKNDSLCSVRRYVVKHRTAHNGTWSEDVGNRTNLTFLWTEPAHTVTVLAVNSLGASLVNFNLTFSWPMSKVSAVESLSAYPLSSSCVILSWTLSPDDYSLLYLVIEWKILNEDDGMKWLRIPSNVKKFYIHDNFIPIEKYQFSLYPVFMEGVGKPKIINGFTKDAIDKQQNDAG

[3] = biological target: T2, LEP-R[D1-D7] construct bearing the IgD mutation L370A (murine, UniProt P48356 22-839, L370A); assay: negative-stain single-particle electron microscopy
T2 sequence (looked up): T1 sequence (looked up) with L349A

Sequence of truncated murine LEP-R construct (D1-D5) lacking the two membrane-proximal FnIII domains (murine) (P48356 whole entry, the tested form may be a part): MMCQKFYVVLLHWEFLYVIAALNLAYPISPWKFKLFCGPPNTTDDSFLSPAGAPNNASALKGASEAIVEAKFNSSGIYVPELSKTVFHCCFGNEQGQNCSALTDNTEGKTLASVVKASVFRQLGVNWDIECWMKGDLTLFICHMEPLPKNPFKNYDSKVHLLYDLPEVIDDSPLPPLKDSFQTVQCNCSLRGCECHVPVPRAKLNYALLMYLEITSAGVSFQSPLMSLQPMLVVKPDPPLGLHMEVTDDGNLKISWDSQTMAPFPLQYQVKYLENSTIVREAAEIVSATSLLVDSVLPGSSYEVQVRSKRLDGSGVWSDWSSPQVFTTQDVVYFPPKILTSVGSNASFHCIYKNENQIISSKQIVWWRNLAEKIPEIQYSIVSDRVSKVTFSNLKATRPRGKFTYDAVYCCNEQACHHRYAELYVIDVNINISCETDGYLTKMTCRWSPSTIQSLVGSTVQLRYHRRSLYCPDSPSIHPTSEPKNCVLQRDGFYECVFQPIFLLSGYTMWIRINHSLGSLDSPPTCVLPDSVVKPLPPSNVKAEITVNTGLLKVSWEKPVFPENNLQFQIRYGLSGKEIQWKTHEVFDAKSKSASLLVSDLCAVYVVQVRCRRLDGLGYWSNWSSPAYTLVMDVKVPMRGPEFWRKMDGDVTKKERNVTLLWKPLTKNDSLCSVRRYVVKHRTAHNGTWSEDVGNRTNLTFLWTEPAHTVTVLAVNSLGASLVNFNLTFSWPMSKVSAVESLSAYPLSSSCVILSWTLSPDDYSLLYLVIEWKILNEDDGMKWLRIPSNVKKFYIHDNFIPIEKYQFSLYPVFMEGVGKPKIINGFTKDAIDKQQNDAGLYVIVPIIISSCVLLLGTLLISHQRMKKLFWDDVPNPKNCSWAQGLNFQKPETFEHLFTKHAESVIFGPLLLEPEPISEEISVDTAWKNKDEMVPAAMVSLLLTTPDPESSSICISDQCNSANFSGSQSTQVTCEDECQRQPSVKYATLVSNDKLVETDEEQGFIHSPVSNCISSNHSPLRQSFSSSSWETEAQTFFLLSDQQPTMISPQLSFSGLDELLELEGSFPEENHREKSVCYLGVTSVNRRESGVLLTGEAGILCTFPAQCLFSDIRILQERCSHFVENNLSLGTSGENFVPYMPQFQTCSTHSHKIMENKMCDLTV

Molecule	Kd [1]	stoichiometry N (receptor:ligand) [1]	stoichiometry N [2]	binding result [3]
recombinant murine leptin (from UniProt P41160 22-167) (ligand)	17 nM	1	–	–
B1	–	–	~1 receptor:ligand	binds
